Results: publication PMC10328853, “Design and preclinical evaluation of a novel apelin-based PET radiotracer targeting APJ receptor for molecular imaging of angiogenesis” (Angiogenesis, 2023)

What was measured:
[1] = in vivo; conditions: Pietrain, pig, 85 MBq, total radioactivity
Protocol: Attenuation-corrected images were reconstructed using ADW software v4.6 (GE Healthcare, Chicago, Illinois, USA), and PET signal quantifications were performed on CT-based manually drawn volumes of interest (VOIs) using VivoQuant software v.3.5 (InVicro, Boston, MA, USA). Results were decay corrected and expressed as mean ± sd percentage of the injected dose (%ID).

[2] = target: T1, APJ in T84 tumors (Homo sapiens, UniProt P35414); test: In vivo specificity of PET signal, T84 colon adenocarcinoma xenograft mice, baseline or APJ-blocking; set-up: species or system mouse; conditions: PET 1 h p.i., n = 3
T1 construct: Mice bearing ectopic colon adenocarcinoma xenograft; from tissue; host or cells: T84 xenograft tumour in Swiss nude mice
T1 sequence (P35414 1-380): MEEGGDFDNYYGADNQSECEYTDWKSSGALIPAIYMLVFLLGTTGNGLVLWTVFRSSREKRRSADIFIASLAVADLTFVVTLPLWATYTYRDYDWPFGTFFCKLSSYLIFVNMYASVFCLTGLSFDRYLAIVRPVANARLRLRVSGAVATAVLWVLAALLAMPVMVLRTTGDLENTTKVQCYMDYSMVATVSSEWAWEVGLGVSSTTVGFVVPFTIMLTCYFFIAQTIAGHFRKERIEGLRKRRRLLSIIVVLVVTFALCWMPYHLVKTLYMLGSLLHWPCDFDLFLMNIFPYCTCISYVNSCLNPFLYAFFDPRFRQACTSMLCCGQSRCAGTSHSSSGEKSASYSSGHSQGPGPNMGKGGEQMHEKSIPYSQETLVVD
Protocol: Human colon adenocarcinoma xenografts were established by subcutaneous dorsal injections of 1.10^6 T84 cells (100 µL, PBS) to 6-week-old male Swiss nude mice (Charles River, Saint-Germain-Nuelles, France, n = 3) under 2% isoflurane anesthesia.
(§1) Small animal PET imaging acquisition lasted 20 min (number of iterations: 4, coincidence: 1–3) using a field of view (FOV) of 10 cm. CT parameters were fixed at 35 kV voltage, 300 ms exposure at medium zoom, acquired by semi-circular method on the same FOV as PET. CT attenuation-corrected reconstruction was performed using Nucline software (Mediso, Budapest, Hungary). […] Tissue uptake values were expressed as a mean target-to-background PET signal ratio (TBRmean) with background represented by the left gastrocnemius muscle.

[3] = target: T2, APJ on T84 cells (Homo sapiens, UniProt P35414); test: In vitro specificity of [68Ga]Ga-AP747 by autoradiography, with and without excess apelin-F13A; type: cell-based; conditions: 1 h incubation, n = 6
T2 construct: endogenous in cells; host or cells: T84 human colon adenocarcinoma cells
T2 sequence (P35414 1-380): T1 sequence (P35414 1-380)
Protocol: T84 cells were seeded at a 1.10^6 cells per well density in 24-well plates (Corning, Corning, USA) and incubated overnight with a complete medium. […] After a 1 h incubation, the medium was removed and the cells were washed 3 times with PBS (Eurobio-scientific, Les Ulis, France) and their viability assessed.

[4] = target: T3, APJ in Matrigel plug (Mus musculus, UniProt Q9WV08); test: In vivo specificity of PET signal, Matrigel plug mice, baseline or APJ-blocking; conditions: PET 1 h p.i., n = 5
T3 construct: probably related to avascular and acellular contents of Matrigel; from tissue; host or cells: Subcutaneous Matrigel plug in male Swiss mice
T3 sequence (Q9WV08 1-377): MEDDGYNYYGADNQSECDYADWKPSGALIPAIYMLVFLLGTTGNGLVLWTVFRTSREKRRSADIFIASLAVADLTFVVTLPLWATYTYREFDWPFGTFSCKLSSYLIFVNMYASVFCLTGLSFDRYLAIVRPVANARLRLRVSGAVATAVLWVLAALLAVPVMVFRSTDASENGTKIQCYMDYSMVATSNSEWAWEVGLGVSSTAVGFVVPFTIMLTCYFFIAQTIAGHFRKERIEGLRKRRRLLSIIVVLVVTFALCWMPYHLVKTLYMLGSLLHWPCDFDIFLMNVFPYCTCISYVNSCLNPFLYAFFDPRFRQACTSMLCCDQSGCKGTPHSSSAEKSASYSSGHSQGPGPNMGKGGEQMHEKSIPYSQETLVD
Protocol: Matrigel plugs were established by subcutaneous dorsal injections of 300 µL Matrigel (Dutscher, Bernolsheim, France) supplemented with 10% fetal bovine serum, to 9-week-old male Swiss mice (Janvier Labs, Le Genest-Saint-Isle, France, n = 12) under 2% isoflurane anesthesia. Seven Matrigel mice underwent small animal PET follow-up, and five others were involved in the in vivo specificity study as described below.
as §1

[5] = mouse, in vivo, iv
Protocol: Blood was collected at 2, 5, 10, 15, 20, 30, 45, 60, 75, 90, 105, and 120 min post-injection and gamma counted with decay correction. Plasmatic half-life (t1/2) was estimated by nonlinear regression. At two hours post-injection, mice were euthanatized and the main organs (heart, liver, lungs, muscle, brain, spleen, intestines, bone, pancreas, and kidneys) were collected, washed in PBS, weighted, and gamma counted. Results were decay corrected and expressed as percentage of injected dose corrected by organ weight (%ID/g).

[6] = system: hindlimb ischemia mouse model; test: Longitudinal PET/CT follow-up in the hindlimb ischemia mouse model; type: in vivo; conditions: HLI mice, day 7, PET 1 h after i.v. injection, n = 8
Source text: Unilateral hindlimb ischemia (HLI) was induced on 9-week-old female Swiss mice (Janvier Labs, n = 8) after femoral artery excision under 2% isoflurane anesthesia as previously described. LASER Doppler perfusion imaging (Perimed, Craponne, France) was used to assess revascularization from day 0 to day 21 after surgery. Perfusion measurements were expressed as an ischemic-to-contralateral ratio of hind limb blood flow normalized to the day of surgery. […] Small animal PET imaging acquisition lasted 20 min (numbers of iterations: 4, coincidence: 1–3) using a field of view (FOV) of 10 cm. CT parameters were fixed at 35 kV voltage, 300 ms exposure at medium zoom, acquired by semi-circular method on the same FOV as PET. CT attenuation-corrected reconstruction was performed using Nucline software (Mediso, Budapest, Hungary). Tissue uptake values were expressed as a target-to-background (Matrigel-to-muscle) or as an ischemic-to-contralateral hindlimb PET signal ratio.

[7] = system: Matrigel plug mouse model; test: Longitudinal PET/CT follow-up in the Matrigel plug mouse model; type: in vivo; conditions: Matrigel mice, n = 7
Protocol: Matrigel plugs were established by subcutaneous dorsal injections of 300 µL Matrigel (Dutscher, Bernolsheim, France) supplemented with 10% fetal bovine serum, to 9-week-old male Swiss mice (Janvier Labs, Le Genest-Saint-Isle, France, n = 12) under 2% isoflurane anesthesia. Seven Matrigel mice underwent small animal PET follow-up, and five others were involved in the in vivo specificity study as described below. […] Small animal PET imaging acquisition lasted 20 min (numbers of iterations: 4, coincidence: 1–3) using a field of view (FOV) of 10 cm. CT parameters were fixed at 35 kV voltage, 300 ms exposure at medium zoom, acquired by semi-circular method on the same FOV as PET. CT attenuation-corrected reconstruction was performed using Nucline software (Mediso, Budapest, Hungary). Tissue uptake values were expressed as a target-to-background (Matrigel-to-muscle) or as an ischemic-to-contralateral hindlimb PET signal ratio.

[8] = in vivo; conditions: male, Swiss, mouse, iv, 4.45 MBq, total radioactivity
Protocol: The quantified PET signal in organs was presented as mean ± SD percentage of the decay-corrected injected dose (%ID). Acquisition of small animal dynamic PET/CT was performed for 120 min on a NanoScan PET/CT camera (Mediso, Budapest, Hungary) under 2% isoflurane in medical air anesthesia [PET parameters: numbers of iterations: 4, coincidence: 1–3, field of view (FOV): 10 cm]. CT parameters were fixed at 35 kV voltage, 300 ms exposure at medium zoom, acquired by semi-circular method on the same FOV as PET. CT attenuation-corrected reconstruction was performed using Nucline software (Mediso, Budapest, Hungary) on the following time frames: 0–5 min, 6–10 min, 11–15 min, 16–20 min, 21–25 min, 26–30 min, 31–45 min, 46–60 min, 61–75 min, 76–90 min, 91–105 min, and 106–120 min.

[9] = system: APJ; conditions: cited from earlier work
Source text: In this context, we identified the apelin/APJ system as a relevant molecular target for angiogenesis imaging because of its implication in blood vessels formation by sprouting. The APJ receptor also known as APLNR and AGTRL1 is a class A G-protein-coupled receptor. Apelin is an endogenous ligand of this receptor. The Apelin/APJ system is described as implicated in different pathologies. High levels of APJ mRNA and protein are found respectively in endothelial cells through vessel formation and on sprouting vessels of hypoxic tissues and tumor-associated endothel ...

[10] = 100X apelin-F13A (100 µg) i.v. 30 min before tracer

CSCC[C@H](NC(=O)[C@@H]1CCCN1C(=O)CNC(=O)[C@H](CCCCNC(=O)CCC(C(=O)O)N1CCN(CC(=O)O)CCN(CC(=O)O)CC1)NC(=O)[C@H](Cc1c[nH]cn1)NC(=O)[C@H](CO)NC(=O)[C@H](CC(C)C)NC(=O)[C@H](CCCNC(=N)N)NC(=O)[C@@H]1CCCN1C(=O)[C@H](CCCNC(=N)N)NC(=O)[C@H](CCC(N)=O)NC(=O)CCC(C(=O)O)N1CCN(CC(=O)O)CCN(CC(=O)O)CC1)C(=O)N1CCC[C@H]1C(=O)N[C@@H](C)C(=O)O (some centres unmarked) [[^68Ga]Ga-AP747, metal not drawn]
tissue uptake dose at 2 h ([1]; PET signal in bladder): 39.4 ± 8.54 %ID | tissue uptake dose at 2 h ([1]; PET signal in brain): 0.037 ± 0.015 %ID | tissue uptake dose at 2 h ([1]; PET signal in heart): 0.58 ± 0.16 %ID | tissue uptake dose at 2 h ([1]; PET signal in kidneys): 3.98 ± 0.79 %ID | tissue uptake dose at 2 h ([1]; PET signal in liver): 1.42 ± 0.34 %ID | tissue uptake dose at 2 h ([1]; PET signal in lungs): 1.39 ± 0.46 %ID | PET tumor-to-muscle ratio, blocking [2, 10]: 1.02 ± 0.31 | PET tumor-to-muscle ratio, non-blocked ([2]; i.v.): 7.93 ± 2.17 | cell-to-background autoradiography signal ratio, non-blocked ([3]; 1.7 MBq/10 µL per well): 1.40 ± 0.38 | cell-to-background autoradiography signal ratio, blocking ([3]; large excess of apelin-F13A added 10 min before tracer): 0.50 ± 0.23 | PET Matrigel-to-muscle ratio, blocking [4, 10]: 2.35 ± 0.62 | PET Matrigel-to-muscle ratio, non-blocked ([4]; i.v.): 7.29 ± 3.14 | Plasmatic half-life (t1/2) [5]: 13.31 min | i/c (ischemic-to-contralateral hindlimb) PET signal ratio [6]: 5.49 ± 5.97 | target-to-background (Matrigel-to-muscle) PET signal ([7]; day 10, PET 1 h after i.v. injection): 3.78 ± 2.11 | target-to-background (Matrigel-to-muscle) PET signal ([7]; day 13, PET 1 h after i.v. injection): 4.86 ± 2.49 | target-to-background (Matrigel-to-muscle) PET signal ([7]; day 21, PET 1 h after i.v. injection): 5.00 ± 3.04 | tissue uptake dose at 2 h ([8]; PET signal in bladder): 88.3 ± 5 %ID | tissue uptake dose at 2 h ([8]; PET signal in brain): 0.02 ± 0.001 %ID | tissue uptake dose at 2 h ([8]; PET signal in kidneys): 1.04 ± 0.2 %ID | tissue uptake dose at 2 h ([8]; PET signal in liver): 0.35 ± 0.03 %ID | tissue uptake dose at 2 h ([8]; PET signal in lungs): 0.06 ± 0.02 %ID

[Ala13]-Apelin-13 [apelin-F13A]
affinity for APJ [9]: nanomolar affinity
